Bridge positions count the residues as written; N and C are the ends. Ends that are not written are not given here. A value given as a limit tells only on which side of the number the result lay.

In data set [1] the target is T1, His-HPV16E7 fusion protein (human papillomavirus type 16, UniProt P03129 1-98).
T1 construct: source: E. coli BL21, extracted in denaturing conditions, purified (Ni-NTA agarose)
T1 sequence (looked up): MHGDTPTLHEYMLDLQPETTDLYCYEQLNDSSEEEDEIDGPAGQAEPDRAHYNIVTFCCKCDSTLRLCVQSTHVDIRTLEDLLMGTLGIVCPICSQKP
In words: ELISA. A general note: An ELISA detects its analyte on a solid surface through an enzyme-linked reagent.

The test system of the next data set is SiHa cells. Here is the method: The 5-FAM labeled peptides were used to monitor the cell uptake and intracellular location of the peptide. SiHa cells were seeded on the coverslips in 12-well plates (1×10^5/well) and cultured overnight. The DMEM was replaced with a fresh medium, supplemented with 80 µM 5-FAM labeled peptide. Cells were washed three times with a PBS buffer after 8 h and 24 h of incubation, respectively, and then observed under a fluorescence microscope Leica DMI 6000B. Images were captured with Leica AF6500 software (Leica Mikrosysteme Vertrieb GmbH, Wetzlar, Germany).

As to “positive phage clones displaying the peptide PKGLDWC”, the inhibitory ratio of HPV16E7 mAb binding at 10^13 CFU/ml in data set [1] is > 50%.

For the molecule `O=C(O)c1ccc2c(c1)C(=O)OC21c2ccc(O)cc2Oc2cc(O)ccc21` [5-Fam], the “cell fluorescence (uptake control)” value in the data set with SiHa cells was “did not show fluorescence”.

B1: Pep-7 (peptide)
peptide: SACPKGLDWCGG
modifications: disulfide 3-10 (inferred)
notes: also called selected peptide; antagonist peptide; source: synthetic peptide (Chinese Peptide Company), HPLC purified
Turning to B1, the binding result in data set [1] (both partners purified) is given as “binds”.

The record behind these values is PMC3057995, “Potent Anti-Tumor Effect Generated by a Novel Human Papillomavirus (HPV) Antagonist Peptide Reactivating the pRb/E2F Pathway” (PLoS ONE, 2011).
